Biological target: T1, Biotin-huCGRPaSA (human, not fully specified; biotin (position not given))
T1 construct: exact construct ('aSA') not explained; also called Biotin CGRPaSA; full-length (1-37) CGRP
T1 peptide: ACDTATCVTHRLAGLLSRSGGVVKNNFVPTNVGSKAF
Assay: ELISA, supernatant; relative to chimeric C245
Method in brief: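 Plates coated with biotin-CGRPaSA at 1.0 μg/mL (90 min, 37°C) and blocked with 2% BSA. Humanized antibodies and chimeric C245 reference, 2.5-fold serial dilutions from 1000 ng/mL, bound 60 min at 37°C. Detection by HRP anti-human IgG (Fc), TMB 15 min, read at 450/620 nm.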

| Binder | Relative binding activity, % |
| --- | --- |
| hu214 (antibody, V domains shown, 3H10 HC-2/1F5 LC1-2) VH: QVQLVQSGAEVKKPGASVKVSCKASGYTFTDYNMHWVRQAPGQGLEWMGYIYPYNGHTVYNQKFRNRVTLTVDTSSSTAYMELRSLRSDDTAVYYCAREGLGGYWGQGTLVTVSS VL: EIVLTQSPATLSLSPGERATLSCKASQNIDFDGYAYMNWYQHKPGQAPRVLIYSVFNLESGIPARFSGSGSGTDFTLTISSLEPEDFAVYYCQQSHEVPYTFGQGTKLEIK | 57% |
| hu212 (antibody, V domains shown, 3H10 HC-2/1A2 LC2-4) VH: QVQLVQSGAEVKKPGASVKVSCKASGYTFTDYNMHWVRQAPGQGLEWMGYIYPYNGHTVYNQKFRNRVTLTVDTSSSTAYMELRSLRSDDTAVYYCAREGLGGYWGQGTLVTVSS VL: DIQLTQSPSFLSASVGDRVTITCKASQNIDYDGYAYLNWYQQKPGKAPKVLIYSVFNLESGVPSRFSGSGSGTEFTLTISSLQPEDFATYYCQQSNEFPYTFGQGTKLEIK | 38% |
| hu121 (antibody, V domains shown, 2B8 HC1-2/1A2 LC2-4) VH: QVQLVQSGAEVKKPGASVKVSCKASGYTFTDYNMHWVRQAPGQGLEWMGNIYPYNGGTVYNQKFNNRVTLTVDTSSSTAYMELRSLRSDDTAVYYCAREGLGGYWGQGTLVTVSS VL: DIQLTQSPSFLSASVGDRVTITCKASQNIDYDGYAYLNWYQQKPGKAPKVLIYSVFNLESGVPSRFSGSGSGTEFTLTISSLQPEDFATYYCQQSNEFPYTFGQGTKLEIK | 49% |
| hu117 (antibody, V domains shown, 2B8 HC1-1/3H10 LC2-2) VH: QVQLVQSGAEVKKPGASVKVSCKASGYTFTDYNMHWVRQAPGQGLEWMGNIYPYNGGTVYNQKFNNRVTLTVDTSSSTAYMELSRLRSDDTAVYYCAREGLGGYWGQGTLVTVSS VL: DIQLTQSPSSLSASVGDRVTITCKASQNIDYGGYSYMNWYQQKPGKAPKVLIYSVFNLESGVPSRFSGSGSGTDFTLTISSLQPEDFATYYCQQSNEAPYTFGQGTKLEIK | 36% |
| hu130 (antibody, V domains shown, 2B8 HC1-2/3H10 LC2-2) VH: QVQLVQSGAEVKKPGASVKVSCKASGYTFTDYNMHWVRQAPGQGLEWMGNIYPYNGGTVYNQKFNNRVTLTVDTSSSTAYMELRSLRSDDTAVYYCAREGLGGYWGQGTLVTVSS VL: DIQLTQSPSSLSASVGDRVTITCKASQNIDYGGYSYMNWYQQKPGKAPKVLIYSVFNLESGVPSRFSGSGSGTDFTLTISSLQPEDFATYYCQQSNEAPYTFGQGTKLEIK | 53% |
| hu43 (antibody, V domains shown, 1F5 HC-2/1A2 LC2-4) VH: QVQLVQSGAEVKKPGASVKVSCKASGYTFTDFNMHWVRQAPGQRLEWMGYIYPYNGDVVYNQNFTNRVTLTVDTSSSTAYMELSSLRSEDTAVYYCAREGLGGYWGQGTLVTVSS VL: DIQLTQSPSFLSASVGDRVTITCKASQNIDYDGYAYLNWYQQKPGKAPKVLIYSVFNLESGVPSRFSGSGSGTEFTLTISSLQPEDFATYYCQQSNEFPYTFGQGTKLEIK | 44% |
| hu134 (antibody, V domains shown, 2B8 HC1-3/1A2 LC2-4) VH: QVQLVQSGAEVKKPGASVKVSCKASGYTFTDYNMHWVRQAPGQGLEWMGNIYPYNAGTVYNQKFNNRVTLTVDTSSSTAYMELSRLRSDDTAVYYCAREGLGGYWGQGTLVTVSS VL: DIQLTQSPSFLSASVGDRVTITCKASQNIDYDGYAYLNWYQQKPGKAPKVLIYSVFNLESGVPSRFSGSGSGTEFTLTISSLQPEDFATYYCQQSNEFPYTFGQGTKLEIK | 86% |
| hu147 (antibody, V domains shown, 3E5 HC-1/1A2 LC2-4) VH: QVQLVQSGAEVKKPGASVKVSCKTSGYTFTDYNMHWVRQAPGQRLEWMGYISPYNGGTAYNQKFKFRVTLTVDTSSSTAYMELSSLRSEDTAVYYCAREGLGGYWGQGTLVTVSS VL: DIQLTQSPSFLSASVGDRVTITCKASQNIDYDGYAYLNWYQQKPGKAPKVLIYSVFNLESGVPSRFSGSGSGTEFTLTISSLQPEDFATYYCQQSNEFPYTFGQGTKLEIK | 111% |
| hu4 (antibody, V domains shown, 1B2 HC-1/1A2 LC2-4) VH: QVQLVQSGAEVKKPGASVKVSCKASGYTFTDYNMHWVRQAPGQGLEWMGYIFPYNGVAVYNRKFRSRVTLTIDTSSSTAYMELRSLRSDDTAVYYCAREGLGGYWGQGTLVTVSS VL: DIQLTQSPSFLSASVGDRVTITCKASQNIDYDGYAYLNWYQQKPGKAPKVLIYSVFNLESGVPSRFSGSGSGTEFTLTISSLQPEDFATYYCQQSNEFPYTFGQGTKLEIK | 58% |
| hu143 (antibody, V domains shown, 2B8 HC1-3/3H10 LC2-2) VH: QVQLVQSGAEVKKPGASVKVSCKASGYTFTDYNMHWVRQAPGQGLEWMGNIYPYNAGTVYNQKFNNRVTLTVDTSSSTAYMELSRLRSDDTAVYYCAREGLGGYWGQGTLVTVSS VL: DIQLTQSPSSLSASVGDRVTITCKASQNIDYGGYSYMNWYQQKPGKAPKVLIYSVFNLESGVPSRFSGSGSGTDFTLTISSLQPEDFATYYCQQSNEAPYTFGQGTKLEIK | 41% |
| hu186 (antibody, V domains shown, 3E5 HC-4/1A2 LC2-4) VH: QVQLVQSGAEVKKPGASVKVSCKTSGYTFTDYNMHWVRQAPGQRLEWMGYISPYNAGTAYNQKFKFRVTLTVDTSSSTAYMELSSLRSEDTAVYYCAREGLGGYWGQGTLVTVSS VL: DIQLTQSPSFLSASVGDRVTITCKASQNIDYDGYAYLNWYQQKPGKAPKVLIYSVFNLESGVPSRFSGSGSGTEFTLTISSLQPEDFATYYCQQSNEFPYTFGQGTKLEIK | 53% |
| hu13 (antibody, V domains shown, 1B2 HC-1/3H10 LC2-2) VH: QVQLVQSGAEVKKPGASVKVSCKASGYTFTDYNMHWVRQAPGQGLEWMGYIFPYNGVAVYNRKFRSRVTLTIDTSSSTAYMELRSLRSDDTAVYYCAREGLGGYWGQGTLVTVSS VL: DIQLTQSPSSLSASVGDRVTITCKASQNIDYGGYSYMNWYQQKPGKAPKVLIYSVFNLESGVPSRFSGSGSGTDFTLTISSLQPEDFATYYCQQSNEAPYTFGQGTKLEIK | 27% |
| hu108 (antibody, V domains shown, 2B8 HC1-1/1A2 LC2-4) VH: QVQLVQSGAEVKKPGASVKVSCKASGYTFTDYNMHWVRQAPGQGLEWMGNIYPYNGGTVYNQKFNNRVTLTVDTSSSTAYMELSRLRSDDTAVYYCAREGLGGYWGQGTLVTVSS VL: DIQLTQSPSFLSASVGDRVTITCKASQNIDYDGYAYLNWYQQKPGKAPKVLIYSVFNLESGVPSRFSGSGSGTEFTLTISSLQPEDFATYYCQQSNEFPYTFGQGTKLEIK | 70% |
| hu160 (antibody, V domains shown, 3E5 HC-2/1A2 LC2-4) VH: QVQLVQSGAEVKKPGASVKVSCKASGYTFTDYNMHWVRQAPGQRLEWMGYISPYNGGTAYNQKFKFRVTLTVDTSSSTAYMELSSLRSEDTAVYYCAREGLGGYWGQGTLVTVSS VL: DIQLTQSPSFLSASVGDRVTITCKASQNIDYDGYAYLNWYQQKPGKAPKVLIYSVFNLESGVPSRFSGSGSGTEFTLTISSLQPEDFATYYCQQSNEFPYTFGQGTKLEIK | 50% |
| hu30 (antibody, V domains shown, 1F5 HC-1/1A2 LC2-4) VH: QVQLVQSGAEVKKPGASVKVSCKASGYTFIDFNMHWVRQAPGQRLEWMGYIYPYNGDVVYNQNFTNRVTLTVDTSSSTAYMELSSLRSEDTAVYYCAREGLGGYWGQGTLVTVSS VL: DIQLTQSPSFLSASVGDRVTITCKASQNIDYDGYAYLNWYQQKPGKAPKVLIYSVFNLESGVPSRFSGSGSGTEFTLTISSLQPEDFATYYCQQSNEFPYTFGQGTKLEIK | 47% |
| hu17 (antibody, V domains shown, 1B2 HC-2/1A2 LC2-4) VH: QVQLVQSGAEVKKPGASVKVSCKASGYTFTDYNMHWVRQAPGQRLEWMGYIFPYNGVAVYNRKFRSRVTLTVDTSSSTAYMELSSLRSEDTAVYYCAREGLGGYWGQGTLVTVSS VL: DIQLTQSPSFLSASVGDRVTITCKASQNIDYDGYAYLNWYQQKPGKAPKVLIYSVFNLESGVPSRFSGSGSGTEFTLTISSLQPEDFATYYCQQSNEFPYTFGQGTKLEIK | 35% |
| hu82 (antibody, V domains shown, 1F5 HC-5/1A2 LC2-4) VH: QVQLVQSGAEVKKPGASVKVSCKASGYTFIDFNMHWVRQAPGQRLEWMGYIYPYNADVVYNQDFTNRVTLTVDTSSSTAYMELSSLRSEDTAVYYCAREGLGGYWGQGTLVTVSS VL: DIQLTQSPSFLSASVGDRVTITCKASQNIDYDGYAYLNWYQQKPGKAPKVLIYSVFNLESGVPSRFSGSGSGTEFTLTISSLQPEDFATYYCQQSNEFPYTFGQGTKLEIK | 97% |
| hu65 (antibody, V domains shown, 1F5 HC-3/3H10 LC2-2) VH: QVQLVQSGAEVKKPGASVKVSCKASGYTFTDFNMHWVRQAPGQGLEWMGYIYPYNGDVVYNQNFTNRVTLTVDTSSSTAYMELRSLRSDDTAVYYCAREGLGGYWGQGTLVTVSS VL: DIQLTQSPSSLSASVGDRVTITCKASQNIDYGGYSYMNWYQQKPGKAPKVLIYSVFNLESGVPSRFSGSGSGTDFTLTISSLQPEDFATYYCQQSNEAPYTFGQGTKLEIK | 20% |
| hu95 (antibody, V domains shown, 2A2 HC-1/1A2 LC2-4) VH: QVQLVQSGAEVKKPGASVKVSCKASGYTFTDYNMHWVRQAPGQRLEWMGYVYPYNGGSAYNQKFKSRVTLTVDTSSSTAYMELSSLRSEDTAVYYCAREGLGGYWGQGTLVTVSS VL: DIQLTQSPSFLSASVGDRVTITCKASQNIDYDGYAYLNWYQQKPGKAPKVLIYSVFNLESGVPSRFSGSGSGTEFTLTISSLQPEDFATYYCQQSNEFPYTFGQGTKLEIK | 43% |
| hu56 (antibody, V domains shown, 1F5 HC-3/1A2 LC2-4) VH: QVQLVQSGAEVKKPGASVKVSCKASGYTFTDFNMHWVRQAPGQGLEWMGYIYPYNGDVVYNQNFTNRVTLTVDTSSSTAYMELRSLRSDDTAVYYCAREGLGGYWGQGTLVTVSS VL: DIQLTQSPSFLSASVGDRVTITCKASQNIDYDGYAYLNWYQQKPGKAPKVLIYSVFNLESGVPSRFSGSGSGTEFTLTISSLQPEDFATYYCQQSNEFPYTFGQGTKLEIK | 53% |
| hu173 (antibody, V domains shown, 3E5 HC-3/1A2 LC2-4) VH: QVQLVQSGAEVKKPGASVKVSCKASGYTFTDYNMHWVRQAPGQGLEWMGYISPYNGGTAYNQKFKFRVTLTVDTSSSTAYMELSRLRSDDTVVYYCAREGLGGYWGQGTLVTVSS VL: DIQLTQSPSFLSASVGDRVTITCKASQNIDYDGYAYLNWYQQKPGKAPKVLIYSVFNLESGVPSRFSGSGSGTEFTLTISSLQPEDFATYYCQQSNEFPYTFGQGTKLEIK | 92% |
